Assay [1] has as its target β-arrestin1 tagged with the eYFP fluorescent protein (UniProt P49407). As to the kind of experiment: BRET. The conditions noted are these: CXCL12 (100 nM), HEK293T cells, read at last time point (~56 min), read off a plot. On the technique in general: BRET reads energy transfer from a luciferase to a nearby fluorophore.
Assay [2] has as its target β-arrestin2 tagged with the mVenus fluorescent protein (UniProt P32121). As to the kind of experiment: BRET. Particulars: CXCL12 (100 nM), HEK293T cells, read off a plot.
Assay [3] deals with wild type ACKR3 fused with Renilla luciferase (RLuc) on the C-terminal tail (human) (UniProt P25106).

This note sets out measurements from PMC8002179.

Sequence of UniProt P25106 (P25106 whole entry, the tested form may be a part): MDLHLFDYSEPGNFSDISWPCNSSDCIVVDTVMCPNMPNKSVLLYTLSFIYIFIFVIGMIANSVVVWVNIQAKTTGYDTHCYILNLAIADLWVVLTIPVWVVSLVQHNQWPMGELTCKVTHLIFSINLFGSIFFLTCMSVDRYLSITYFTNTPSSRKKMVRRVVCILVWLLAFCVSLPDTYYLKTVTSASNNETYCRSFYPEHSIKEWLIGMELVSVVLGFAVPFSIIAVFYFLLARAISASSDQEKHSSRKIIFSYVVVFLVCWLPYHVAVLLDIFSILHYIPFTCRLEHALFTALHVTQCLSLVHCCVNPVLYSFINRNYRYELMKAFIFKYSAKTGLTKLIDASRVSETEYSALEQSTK
Sequence of CXCL12 (P48061 22-93): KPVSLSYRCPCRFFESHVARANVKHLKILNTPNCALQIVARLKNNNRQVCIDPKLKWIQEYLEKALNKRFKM

“wild type ACKR3 fused with Renilla luciferase (RLuc) on the C-terminal tail (from UniProt P25106) ST/A 350.355”: the response came to 1.01 fold vehicle in assay [1] (parent: est. 1.09) and 1.14 fold vehicle in assay [2] (read at last time point (~56 min), parent: est. 1.17).
In assay [3], “CXCL12 (from UniProt P48061 22-93) (ligand)” registered a pEC50 of CXCL12 for ACKR3-RLuc translocation to Rab5a-mVenus (early endosome sensor, BRET, HEK293T) of 9.1 pEC50; a pEC50 of CXCL12 for ACKR3-RLuc translocation to Rab11-mVenus (recycling endosome sensor, BRET, HEK293T) of 9.1 pEC50; a pEC50 of CXCL12 for GRK2-mVenus recruitment to ACKR3-RLuc (BRET, HEK293T) of 8.2 pEC50; a pEC50 of CXCL12 for GRK3-mVenus recruitment to ACKR3-RLuc (BRET, HEK293T) of 8.1 pEC50. For the same substance, in assay [3], the pEC50 of CXCL12 for GRK5-mVenus recruitment to ACKR3-RLuc (BRET, HEK293T) came to 8.3 pEC50; the pEC50 of CXCL12 for loss of ACKR3-RLuc co-localization with K-Ras-mVenus (cell membrane sensor, BRET, HEK293T) was found to be 8.9 pEC50; the pEC50 of CXCL12 for β-arrestin1-eYFP recruitment to ACKR3-RLuc (BRET, HEK293T) turned out to be 8.1 pEC50; the pEC50 of CXCL12 for β-arrestin2-mVenus recruitment to ACKR3-RLuc (BRET, HEK293T) amounted to 8.2 pEC50.
Take “wild type ACKR3 fused with Renilla luciferase (RLuc) on the C-terminal tail (from UniProt P25106) full ST/A”: the response in assay [1] (parent: est. 1.11) is 1 fold vehicle; in assay [2] (read at last time point (~33 min), parent: est. 1.13), 1.02 fold vehicle.
